Experimental data reported in publication PMC7532178, “Interaction of protocadherin-15 with the scaffold protein whirlin supports its anchoring of hair-bundle lateral links in cochlear hair cells” (Scientific Reports, 2020).
No end group written: not given here. *: point of attachment. Biotin = O=C1N[C@H]2[C@H](CS[C@H]2CCCCC(=O)*)N1; TTDS = trioxatridecan-succinamic acid spacer

T1: whirlin PDZ1-Hp (aa residues 137-246) (mouse, UniProt Q80VW5-1 137-246)
T1 construct: extra 7 aa at the N-terminus of all recombinant proteins of the study; whirlin, residues 137-246: PDZ1 with its hairpin extension Hp1; also called PDZ1 + Hp1; whirlin PDZ1-Hp1 fragment
T1 sequence: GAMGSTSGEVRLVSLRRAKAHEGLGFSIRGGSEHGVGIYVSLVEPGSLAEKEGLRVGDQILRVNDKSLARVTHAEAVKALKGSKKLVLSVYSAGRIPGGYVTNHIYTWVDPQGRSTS

T2: whirlin-PDZ2 (aa residues 272-368) (mouse, UniProt Q80VW5-1 272-368)
T2 construct: extra 7 aa at the N-terminus of all recombinant proteins of the study; whirlin, residues 272-368: PDZ2 domain; source: E. coli BL21 (DE3) codonPlus-RIPL, purified (Glutathione Sepharose 4B, GST removed by TEV proteinase, SEC)
T2 sequence: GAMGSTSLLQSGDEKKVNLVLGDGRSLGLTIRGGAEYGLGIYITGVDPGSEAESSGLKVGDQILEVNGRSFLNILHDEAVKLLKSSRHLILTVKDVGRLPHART

T3: whirlin-PDZ3 (aa residues 821-915) (mouse, UniProt Q80VW5-1 821-915)
T3 construct: extra 7 aa at the N-terminus of all recombinant proteins of the study; whirlin, residues 821-915: PDZ3 domain, common to L- and S-whirlin; also called whirlin PDZ3 domain
T3 sequence: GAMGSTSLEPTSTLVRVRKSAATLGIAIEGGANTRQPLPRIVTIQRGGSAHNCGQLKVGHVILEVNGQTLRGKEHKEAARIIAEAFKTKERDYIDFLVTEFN


Assays:
Assay in all cases: SPR; ProteOn XPR 36; N-terminally biotinylated peptides captured on a Neutravidin NLC sensor chip, whirlin fragments flowed as analytes at 20 μL/min for 2 min; 250 mM NaCl, 50 mM Tris pH 7.5, 0.5 mM TCEP; steady-state fit Req = (Rmax*C)/(Kd+C); mean of three experiments; Figure 4B shows the responses at 10 μM
Details in all cases: both partners purified
[1] = molecular target: T1, whirlin PDZ1-Hp (aa residues 137-246)
[2] = molecular target: T2, whirlin-PDZ2 (aa residues 272-368)
[3] = molecular target: T3, whirlin-PDZ3 (aa residues 821-915)

Row | Kd [1] | Kd [2] | Kd [3] | Binder
1 | 29 µM | > 1000 µM | > 1000 µM | {Biotin-TTDS}-GIDVQPHSQSTSL (C-terminal 13 aa of protocadherin-15 isoform CD1, including the PBM; source: synthetic peptide (Eurogentec); not shown: biotin, N-terminal, kept) [PCDH15-CD1 C-terminal peptide (biotin-TTDS-GIDVQPHSQSTSL)]
2 | 11 µM | 460 µM | 230 µM | {Biotin-TTDS}-MGPWNSLHIPMTKL (C-terminal 14 aa of protocadherin-15 isoform CD3, including the PBM; source: synthetic peptide (Eurogentec); not shown: biotin, N-terminal, kept) [PCDH15-CD3 C-terminal peptide (biotin-TTDS-MGPWNSLHIPMTKL)]
3 | 33 µM | > 1000 µM | > 1000 µM | {Biotin-TTDS}-GANSEQYNTAL (C-terminal 11 aa of protocadherin-15 isoform CD2, including the PBM; source: synthetic peptide (Eurogentec); not shown: biotin, N-terminal, kept) [PCDH15-CD2 C-terminal peptide (biotin-TTDS-GANSEQYNTAL)]
